Reference: patent US9205136B2, “Human aminoacyl-tRNA synthetase polypeptides useful for the regulation of angiogenesis” (THE SCRIPPS RESEARCH INSTITUTE, priority 2000, dated 2015)

Experiments:
[1] = test system: MPs; assay: MP chemotaxis assay (ChemoTX microchemotaxis chamber); assay type: cell-based, human; settings: sample proteins 1 nM, 3 hours
Experimental: (§1) Cells for the various cytokine assays described were prepared from acid citrate dextrose-treated blood of normal healthy volunteers. Human PMNs were isolated from the blood by centrifugation (700×g) over Histopaque 1077 and 1119 (Sigma). […] This procedure was repeated twice. Human MPs were isolated by centrifugation on Histopaque 1077 (Sigma). The mononuclear fraction was obtained, washed twice in Hanks' balanced salt solution, resuspended in RPMI-1640 medium (Sigma) containing 10% heat-inactivated fetal bovine serum (Sigma), plated in tissue culture flasks, and incubated in a 6% CO2 incubator at 37° C. for 1-2 hours (Kumagai et al., 1979, J. Immunol. Methods 29:17-25). Nonadherent cells were removed by washing the flasks three times with Hanks' balanced salt solution, and adherent cells were harvested by incubation with calcium-magnesium free phosphate-buffered saline containing 2 mM EDTA for 15 minutes at 4° C., followed by extensive washing.
MP chemotaxis assays were performed in a ChemoTX microchemotaxis chamber (Neuro Probe, Gaithersburg, Md.) containing polycarbonate filters (5 μm pores) with polyvinylpyrrolidone (PVP). MPs were suspended in RPMI-1640 medium containing 1% heat-inactivated fetal bovine serum, and 10^4 cells were added to the upper chamber. Sample proteins (1 nM) were added to the lower compartment of chemotaxis chambers, and the chambers were incubated for 3 hours. After incubation, nonmigrating cells were removed, membranes were fixed in methanol, and migrating cells were visualized with the HEMACOLOR™ stain set (EM Diagnostic Systems, Gibbstown, N.J.). Migrating cells were counted in high-power fields (HPFs). Each determination shown in FIG. 2 represents the average of nine HPF measurements.

[2] = test system: MPs; assay: MP tissue factor production (Factor VIIa-dependent Factor Xa formation); assay type: cell-based, human; settings: 1 nM sample protein, 4 hours
Experimental: as §1
MP tissue factor production was examined following incubation of 10^4 MPs with 1 nM of sample protein for 4 hours. Tissue factor activity was then inferred from measurements of Factor VIIa-dependent Factor Xa formation (Wolfson et al., 1990 J. Chromatogr., 503:277-81). Each determination shown in FIG. 2 represents the mean of four measurements from at least three independent experiments.

[3] = test system: PMNs; assay: PMN chemotaxis assay (ChemoTX microchemotaxis chamber); assay type: cell-based, human; settings: for PMN chemotaxis (PMN migration): sample proteins 1 nM, 45 min
In short: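 Human PMNs were isolated from healthy-donor blood over Histopaque 1077/1119. 10^4 cells were placed in the upper compartment of a ChemoTX microchemotaxis chamber, with sample protein at 1 nM in the lower compartment. After 45 min, migrated cells were counted as the mean of nine HPFs.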

[4] = target: T1, type B receptor (Homo sapiens, UniProt P25025); assay: Binding to RBL2H3 cells transfected with IL-8 receptor type B; settings: transfected RBL2H3 rat basophilic leukemia cells; read-out: Kd on cells expressing the type B receptor
T1 construct: expressed in transfected cells; host or cells: RBL2H3 rat basophilic leukemia cells
T1 sequence (P25025 1-360): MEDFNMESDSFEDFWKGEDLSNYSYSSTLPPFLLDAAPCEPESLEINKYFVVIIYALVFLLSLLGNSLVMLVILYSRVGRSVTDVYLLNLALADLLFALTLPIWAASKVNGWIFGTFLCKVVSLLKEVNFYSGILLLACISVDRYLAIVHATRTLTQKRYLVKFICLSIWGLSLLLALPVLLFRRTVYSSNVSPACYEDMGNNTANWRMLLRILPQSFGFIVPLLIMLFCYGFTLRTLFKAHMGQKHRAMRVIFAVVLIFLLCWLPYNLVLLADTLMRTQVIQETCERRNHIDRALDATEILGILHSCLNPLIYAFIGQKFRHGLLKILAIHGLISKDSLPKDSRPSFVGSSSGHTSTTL
Experimental: Following incubation, cells were separated from unbound radioactivity as described herein.
Untransfected RBL2H3 cells express neither the type A nor type B receptors.

B1: mini TyrRS: truncated TyrRS, residues 1-364 of full-length TyrRS, amino-terminal catalytic domain (protein)
chain: MGDAPSPEEKLHLITRNLQEVLGEEKLKEILKERELKIYWGTATTGKPHVAYFVPMSKIADFLKAGCEVTILFADLHAYLDNMKAPWELLELRVSYYENVIKAMLESIGVPLEKLKFIKGTDYQLSKEYTLDVYRLSSVVTQHDSKKAGAEVVKQVEHPLLSGLLYPGLQALDEEYLKVDAQFGGIDQRKIFTFAEKYLPALGYSKRVHLMNPMVPGLTGSKMSSSEEESKIDLLDRKEDVKKKLKKAFCEPGNVENNGVLSFIKHVLFPLKSEFVILRDEKWGGNKTYTAYVDLEKDFAAEVVHPGDLKNSVEVALNKLLDPIREKFNTPALKKLASAAYPDPSKQKPMAKGPAKNSEPEEVILEHHHHHH
modifications: His6 tag; Human mini TyrRS in pET20B
notes: truncated TyrRS, residues 1-364 of full-length TyrRS, amino-terminal catalytic domain
MP chemotaxis (MP migration) [1]: did not induce MP migration | MP tissue factor production [2]: did not stimulate production | concentration dependence of PMN migration [3]: bell-shaped concentration dependence | PMN chemotaxis (PMN migration) [3]: did induce PMN migration | PMN chemotaxis (PMN migration) ([3]; listed as human mini TyrRS): led to an induction of PMN migration | Kd [4]: > 200 nM
